Assay [1] has as its target recombinant DEN-2 virus E-glycoprotein antigen (wild type, from pCB8D2-2J-2-9-1) (dengue virus serotype 2 (carboxy-terminal 20% from JE virus)). Put plainly: IFA, wild-type plasmid transfected cells.
The target is the same in assay [2].

Read-outs that look alike come from different tables or passages of the source.

Take mAb 4E5 (antibody): the mAb reactivity (end point) was 2.6 in assay [1] and more than 2.9 in assay [2].

For the substance mAb 4G2 (antibody), the mAb reactivity (end point) was 3.8 in assay [1] and more than 6 in assay [2].

For the substance mAb 3H5 (antibody), the mAb reactivity (end point) is more than 4.4 in assay [1] and more than 6 in assay [2].

Values taken from patent publication US20080248064A1.
